Test results taken from US20120316071A1 (published 2012).

What was measured:
[1] = target: T1, rHuman Erythropoietin R/Fc Chimera, CF (R&D Systems Cat#963-ER) (human, UniProt P19235 25-250); test: Multispot ECL (MSD), antigen spotted on plate, Fab 210 nM; blank spot 833
T1 construct: Bought recombinant protein; also called EPO R/Fc; Epo R; Fc part of the bought chimera not given
T1 sequence (looked up): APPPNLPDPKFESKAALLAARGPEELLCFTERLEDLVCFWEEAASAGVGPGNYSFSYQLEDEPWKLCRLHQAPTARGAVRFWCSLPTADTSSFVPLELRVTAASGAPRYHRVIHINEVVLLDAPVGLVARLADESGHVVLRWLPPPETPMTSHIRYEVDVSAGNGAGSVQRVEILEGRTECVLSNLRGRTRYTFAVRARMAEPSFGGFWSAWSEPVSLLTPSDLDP

[2] = target: T2, rHuman ErbB2/Fc Chimera, CF (R&D Systems Cat#1129-ER) (human, UniProt P04626 23-652); test: as above
T2 construct: Bought recombinant protein; also called human epidermal growth factor 2 receptor; Fc part of the bought chimera not given

[3] = target: T3, rHuman EGF R/Fc Chimera, CF (R&D Systems Cat#344-ER) (human, UniProt P00533 25-645); test: as above
T3 construct: Bought recombinant protein; also called epidermal growth factor receptor; Fc part of the bought chimera not given

[4] = target: T4, rHuman HGF R/c-MET/Fc Chimera, CF (R&D Systems Cat#358-MT/CF) (human, UniProt P08581 25-932); test: as above
T4 construct: Bought recombinant protein; also called HGF R/Fc; hepatocyte growth factor receptor; Fc part of the bought chimera not given

[5] = target: T5, rHuman CD44/Fc Chimera, CF (R&D Systems Cat#3660-CD) (human, UniProt P16070 21-220); test: as above
T5 construct: Bought recombinant protein; Fc part of the bought chimera not given

[6] = target: T1, rHuman Erythropoietin R/Fc Chimera, CF …; test: Multispot ECL (MSD), antigen spotted on plate, Fab 3.3 nM; blank spot 359
[7] = target: T2, rHuman ErbB2/Fc Chimera, CF (R&D …); test: as above
[8] = target: T3, rHuman EGF R/Fc Chimera, CF (R&D …); test: as above
[9] = target: T4, rHuman HGF R/c-MET/Fc Chimera, CF (R&D …); test: as above
[10] = target: T5, rHuman CD44/Fc Chimera, CF (R&D Systems …); test: as above
[11] = target: T1, rHuman Erythropoietin R/Fc Chimera, CF …; test: Multispot ECL (MSD), antigen spotted on plate, Fab 13.1 nM; blank spot 376
[12] = target: T2, rHuman ErbB2/Fc Chimera, CF (R&D …); test: as above
[13] = target: T3, rHuman EGF R/Fc Chimera, CF (R&D …); test: as above
[14] = target: T4, rHuman HGF R/c-MET/Fc Chimera, CF (R&D …); test: as above
[15] = target: T5, rHuman CD44/Fc Chimera, CF (R&D Systems …); test: as above
[16] = target: T1, rHuman Erythropoietin R/Fc Chimera, CF …; test: Multispot ECL (MSD), antigen spotted on plate, Fab 52.5 nM; blank spot 467
[17] = target: T2, rHuman ErbB2/Fc Chimera, CF (R&D …); test: as above
[18] = target: T3, rHuman EGF R/Fc Chimera, CF (R&D …); test: as above
[19] = target: T4, rHuman HGF R/c-MET/Fc Chimera, CF (R&D …); test: as above
[20] = target: T5, rHuman CD44/Fc Chimera, CF (R&D Systems …); test: as above
[21] = target: T6, rHuman Erythropoietin R/Fc Chimera, CF (R&D Systems Cat#963-ER) (human, UniProt P19235 25-250); test: ECL multispot (MSD) assay, antigen spotted on plate, Fab at 0.1 µM
T6 construct: Bought recombinant protein; also called EPO R; EPO R/Fc; Fc part of the bought chimera not given
T6 sequence (looked up): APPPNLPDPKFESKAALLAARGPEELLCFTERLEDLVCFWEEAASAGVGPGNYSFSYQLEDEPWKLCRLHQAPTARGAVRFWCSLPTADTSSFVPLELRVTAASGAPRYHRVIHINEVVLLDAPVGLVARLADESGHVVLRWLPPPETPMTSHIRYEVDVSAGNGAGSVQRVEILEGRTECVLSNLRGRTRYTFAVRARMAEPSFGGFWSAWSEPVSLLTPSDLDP

[22] = target: T7, Recombinant Human DLL4 (R&D Systems Cat#1506-D4/CF) (human, UniProt Q9NR61 27-524); test: as above
T7 construct: Bought recombinant protein; also called delta-like protein 4; rHuman DLL4

[23] = target: T8, rHuman ErbB2/Fc Chimera, CF (R&D Systems Cat#1129-ER) (human, UniProt P04626 23-652); test: as above
T8 construct: Bought recombinant protein; also called human epidermal growth factor 2 receptor; Fc part of the bought chimera not given

[24] = target: T9, rHuman EGF R/Fc Chimera, CF (R&D Systems Cat#344-ER) (human, UniProt P00533 25-645); test: as above
T9 construct: Bought recombinant protein; also called epidermal growth factor receptor; Fc part of the bought chimera not given

[25] = target: T10, rHuman HGF R/c-MET/Fc Chimera, CF (R&D Systems Cat#358-MT/CF) (human, UniProt P08581 25-932); test: as above
T10 construct: Bought recombinant protein; also called HGF R/Fc; hepatocyte growth factor receptor; Fc part of the bought chimera not given

[26] = target: T11, rHuman Notch-1/Fc Chimera, CF (R&D Systems Cat#3647-TK) (human, UniProt P46531 19-526); test: as above
T11 construct: Bought recombinant protein; Fc part of the bought chimera not given

[27] = target: T12, rHuman CD44/Fc Chimera, CF (R&D Systems Cat#3660-CD) (human, UniProt P16070 21-220); test: as above
T12 construct: Bought recombinant protein; Fc part of the bought chimera not given

[28] = target: T13, rHuman IGF-1 sR, CF (R&D Systems Cat#391-GR) (human, UniProt P08069 31-932); test: as above
T13 construct: Bought recombinant soluble receptor; also called insulin-like growth factor-1 soluble receptor

[29] = target: T14, rHuman P-Cadherin/Fc Chimera, CF (R&D Systems Cat#861-PC) (human, UniProt P22223 108-654); test: as above
T14 construct: Bought recombinant protein; Fc part of the bought chimera not given

[30] = target: T6, rHuman Erythropoietin R/Fc Chimera, CF …; test: ECL multispot (MSD) assay, antigen spotted on plate, Fab at 0.01 µM
[31] = target: T7, Recombinant Human DLL4 (R&D Systems …); test: as above
[32] = target: T8, rHuman ErbB2/Fc Chimera, CF (R&D …); test: as above
[33] = target: T9, rHuman EGF R/Fc Chimera, CF (R&D …); test: as above
[34] = target: T10, rHuman HGF R/c-MET/Fc Chimera, CF (R&D …); test: as above
[35] = target: T11, rHuman Notch-1/Fc Chimera, CF (R&D …); test: as above
[36] = target: T12, rHuman CD44/Fc Chimera, CF (R&D Systems …); test: as above
[37] = target: T13, rHuman IGF-1 sR, CF (R&D Systems …); test: as above
[38] = target: T14, rHuman P-Cadherin/Fc Chimera, CF (R&D …); test: as above

B1: Fab VH4-31_IGHD2-15*01_IGHJ2*01 & V1-4_IGLJ4*01 (Fab, V domains shown)
VH: QVQLQESGPGLVKPSQTLSLTCTVSGGSISSGGYYWSWIRQHPGKGLEWIGYIYYSGSTYYNPSLKSRVTISVDTSKNQFSLKLSSVTAADTAVYYCAREGYCSGGSCYSYWYFDLWGRGTLVTVSS
VL: QSALTQPASVSGSPGQSITISCTGTSSDVGGYNYVSWYQQHPGKAPKLMIYEVSNRPSGVSNRFSGSKSGNTASLTISGLQAEDEADYYCSSYTSSSTLFVFGGGTQLIIL
notes: Tested as a Fab made in E. coli; The heavy chain variable region was cloned into Plasmid A (CH1 constant region, His6 and Flag tags); The lambda light chain variable region was cloned into Plasmid E (lambda CL); Only the variable domains are tied to this Fab by name
[1]
  ECL signal at 210 nM Fab: 2120
[2]
  ECL signal at 210 nM Fab: 1980
[3]
  ECL signal at 210 nM Fab: 1620
[4]
  ECL signal at 210 nM Fab: 2060
[5]
  ECL signal at 210 nM Fab: 1400
[6]
  ECL signal at 3.3 nM Fab: 695
[7]
  ECL signal at 3.3 nM Fab: 1030
[8]
  ECL signal at 3.3 nM Fab: 847
[9]
  ECL signal at 3.3 nM Fab: 849
[10]
  ECL signal at 3.3 nM Fab: 621
[11]
  ECL signal at 13.1 nM Fab: 776
[12]
  ECL signal at 13.1 nM Fab: 930
[13]
  ECL signal at 13.1 nM Fab: 824
[14]
  ECL signal at 13.1 nM Fab: 981
[15]
  ECL signal at 13.1 nM Fab: 708
[16]
  ECL signal at 52.5 nM Fab: 1320
[17]
  ECL signal at 52.5 nM Fab: 1510
[18]
  ECL signal at 52.5 nM Fab: 1110
[19]
  ECL signal at 52.5 nM Fab: 1290
[20]
  ECL signal at 52.5 nM Fab: 897

B2: Fab VH1-46_IGHD6-6*01_IGHJ1*01 S102A & L6_IGKJ1*01 (Fab, V domains shown)
VH: QVQLVQSGAEVKKPGASVKVSCKASGYTFTSYYMHWVRQAPGQGLEWMGIINPSGGSTSYAQKFQGRVTMTRDTSTSTVYMELSSLRSEDTAVYYCAREEYASSSAEYFQHWGQGTLVTVSS
VL: not shown
notes: Tested as a Fab expressed in E. coli (Plasmid A: CH1, His6 and Flag tags; Plasmid C: kappa CL)
[21]
  ECL signal/noise ratio: 1.3
[22]
  ECL signal/noise ratio: 71.6
[23]
  ECL signal/noise ratio: 0.8
[24]
  ECL signal/noise ratio: 0.9
[25]
  ECL signal/noise ratio: 0.5
[26]
  ECL signal/noise ratio: 1.4
[27]
  ECL signal/noise ratio: 1.3
[28]
  ECL signal/noise ratio: 1.3
[29]
  ECL signal/noise ratio: 1
[30]
  ECL signal/noise ratio: 0.8
[31]
  ECL signal/noise ratio: 10
[32]
  ECL signal/noise ratio: 1
[33]
  ECL signal/noise ratio: 0.8
[34]
  ECL signal/noise ratio: 0.5
[35]
  ECL signal/noise ratio: 0.6
[36]
  ECL signal/noise ratio: 0.9
[37]
  ECL signal/noise ratio: 0.5
[38]
  ECL signal/noise ratio: 0.2
